{"source": "paper PMC10313831", "about": "“ssDNA accessibility of Rad51 is regulated by orchestrating multiple RPA dynamics”", "key": {"[1]": {"biological_target": "T1, RPA (Rfa1-Rfa2-Rfa3) (Saccharomyces cerevisiae, UniProt P22336;P26754;P26755 1-621;1-273;1-122)", "T1 sequence (P22336 whole entry, chain 1 of 3)": "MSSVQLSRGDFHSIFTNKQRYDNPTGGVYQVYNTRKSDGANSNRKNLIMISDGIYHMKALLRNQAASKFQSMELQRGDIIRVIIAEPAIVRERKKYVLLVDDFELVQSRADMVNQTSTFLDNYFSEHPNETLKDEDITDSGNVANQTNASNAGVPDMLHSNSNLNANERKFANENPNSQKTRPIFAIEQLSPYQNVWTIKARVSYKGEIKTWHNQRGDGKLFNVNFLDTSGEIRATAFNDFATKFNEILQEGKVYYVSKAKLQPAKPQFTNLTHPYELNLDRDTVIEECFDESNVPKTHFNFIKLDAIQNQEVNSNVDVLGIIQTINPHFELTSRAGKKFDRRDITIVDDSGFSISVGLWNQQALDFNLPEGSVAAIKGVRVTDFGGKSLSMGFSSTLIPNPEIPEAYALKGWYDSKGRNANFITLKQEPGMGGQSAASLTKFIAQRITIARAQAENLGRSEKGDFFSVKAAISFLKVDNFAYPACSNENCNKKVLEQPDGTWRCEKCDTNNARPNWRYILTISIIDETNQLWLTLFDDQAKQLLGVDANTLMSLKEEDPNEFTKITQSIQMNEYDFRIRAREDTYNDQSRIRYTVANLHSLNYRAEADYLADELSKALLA", "T1 sequence (P26754 whole entry, chain 2 of 3)": "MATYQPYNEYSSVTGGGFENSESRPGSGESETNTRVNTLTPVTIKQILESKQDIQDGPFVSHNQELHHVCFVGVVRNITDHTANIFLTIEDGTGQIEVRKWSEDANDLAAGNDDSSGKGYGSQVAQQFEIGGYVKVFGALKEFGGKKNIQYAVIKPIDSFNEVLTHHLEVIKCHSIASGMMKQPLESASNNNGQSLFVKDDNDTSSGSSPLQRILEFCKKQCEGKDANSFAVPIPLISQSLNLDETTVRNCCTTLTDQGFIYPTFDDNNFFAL", "T1 sequence (P26755 whole entry, chain 3 of 3)": "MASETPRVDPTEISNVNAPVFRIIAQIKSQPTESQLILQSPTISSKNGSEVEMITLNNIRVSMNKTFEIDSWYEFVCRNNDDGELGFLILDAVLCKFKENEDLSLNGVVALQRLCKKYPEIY", "assay": "EMSA; 150 mM KCl; 2-stage binding; EMSA: 20 mM Tris-HCl pH 7.5, 150 (or 15) mM KCl, 1 mM DTT, 100 ug/mL BSA, 5 nM DNA, 30 C 10 min; curtains: 40 mM Tris-HCl pH 7.5, 150 or 15 mM NaCl, 2 mM MgCl2, 1 mM DTT, 0.2 mg/mL BSA; MST: 1x PBS-P+", "details": "protein: recombinant; tags: His tag (MST: His-tagged RPA, RED-tris-NTA dye); copies: 1;1;1; label: 5'-32P"}, "[2]": {"biological_target": "T1, RPA (Rfa1-Rfa2-Rfa3)", "assay": "EMSA; minimal length for stable first RPA; EMSA: 20 mM Tris-HCl pH 7.5, 150 (or 15) mM KCl, 1 mM DTT, 100 ug/mL BSA, 5 nM DNA, 30 C 10 min; curtains: 40 mM Tris-HCl pH 7.5, 150 or 15 mM NaCl, 2 mM MgCl2, 1 mM DTT, 0.2 mg/mL BSA; MST: 1x PBS-P+", "details": "protein: recombinant; tags: His tag (MST: His-tagged RPA, RED-tris-NTA dye); copies: 1;1;1; label: 5'-32P"}, "[3]": {"biological_target": "T1, RPA (Rfa1-Rfa2-Rfa3)", "assay": "EMSA; 150 mM KCl; second RPA binds at 50-100 nM; EMSA: 20 mM Tris-HCl pH 7.5, 150 (or 15) mM KCl, 1 mM DTT, 100 ug/mL BSA, 5 nM DNA, 30 C 10 min; curtains: 40 mM Tris-HCl pH 7.5, 150 or 15 mM NaCl, 2 mM MgCl2, 1 mM DTT, 0.2 mg/mL BSA; MST: 1x PBS-P+", "details": "protein: recombinant; tags: His tag (MST: His-tagged RPA, RED-tris-NTA dye); copies: 1;1;1; label: 5'-32P"}, "[4]": {"biological_target": "T1, RPA (Rfa1-Rfa2-Rfa3)", "assay": "EMSA; minimal length for stable third RPA; EMSA: 20 mM Tris-HCl pH 7.5, 150 (or 15) mM KCl, 1 mM DTT, 100 ug/mL BSA, 5 nM DNA, 30 C 10 min; curtains: 40 mM Tris-HCl pH 7.5, 150 or 15 mM NaCl, 2 mM MgCl2, 1 mM DTT, 0.2 mg/mL BSA; MST: 1x PBS-P+", "details": "protein: recombinant; tags: His tag (MST: His-tagged RPA, RED-tris-NTA dye); copies: 1;1;1; label: 5'-32P"}, "[5]": {"biological_target": "T1, RPA (Rfa1-Rfa2-Rfa3)", "assay": "EMSA; 150 mM KCl; single shifted species, affinity similar to dT30; EMSA: 20 mM Tris-HCl pH 7.5, 150 (or 15) mM KCl, 1 mM DTT, 100 ug/mL BSA, 5 nM DNA, 30 C 10 min; curtains: 40 mM Tris-HCl pH 7.5, 150 or 15 mM NaCl, 2 mM MgCl2, 1 mM DTT, 0.2 mg/mL BSA; MST: 1x PBS-P+", "details": "protein: recombinant; tags: His tag (MST: His-tagged RPA, RED-tris-NTA dye); copies: 1;1;1; label: 5'-32P"}, "[6]": {"biological_target": "T1, RPA (Rfa1-Rfa2-Rfa3)", "assay": "EMSA; 150 mM KCl; second RPA at 20 nM, third at 200 nM; EMSA: 20 mM Tris-HCl pH 7.5, 150 (or 15) mM KCl, 1 mM DTT, 100 ug/mL BSA, 5 nM DNA, 30 C 10 min; curtains: 40 mM Tris-HCl pH 7.5, 150 or 15 mM NaCl, 2 mM MgCl2, 1 mM DTT, 0.2 mg/mL BSA; MST: 1x PBS-P+", "details": "protein: recombinant; tags: His tag (MST: His-tagged RPA, RED-tris-NTA dye); copies: 1;1;1; label: 5'-32P"}, "[7]": {"biological_target": "T1, RPA (Rfa1-Rfa2-Rfa3)", "assay": "EMSA; 150 mM KCl; single shifted species; EMSA: 20 mM Tris-HCl pH 7.5, 150 (or 15) mM KCl, 1 mM DTT, 100 ug/mL BSA, 5 nM DNA, 30 C 10 min; curtains: 40 mM Tris-HCl pH 7.5, 150 or 15 mM NaCl, 2 mM MgCl2, 1 mM DTT, 0.2 mg/mL BSA; MST: 1x PBS-P+", "details": "protein: recombinant; tags: His tag (MST: His-tagged RPA, RED-tris-NTA dye); copies: 1;1;1; label: 5'-32P (EMSA); unlabeled (MST)"}, "[8]": {"biological_target": "RPA-MeGFP (Saccharomyces cerevisiae, UniProt P22336;P26754;P26755 1-621;1-273;1-122)", "sequence (P22336 whole entry, chain 1 of 3)": "as the sequence (P22336 whole entry, chain 1 of 3) above", "sequence (P26754 whole entry, chain 2 of 3)": "as the sequence (P26754 whole entry, chain 2 of 3) above", "sequence (P26755 whole entry, chain 3 of 3)": "as the sequence (P26755 whole entry, chain 3 of 3) above", "assay": "MST; similar to RPA; EC50 only in figure; PBS-P+; EMSA: 20 mM Tris-HCl pH 7.5, 150 (or 15) mM KCl, 1 mM DTT, 100 ug/mL BSA, 5 nM DNA, 30 C 10 min; curtains: 40 mM Tris-HCl pH 7.5, 150 or 15 mM NaCl, 2 mM MgCl2, 1 mM DTT, 0.2 mg/mL BSA; MST: 1x PBS-P+", "details": "protein: recombinant; tags: MeGFP (eGFP A206K)-6xHis at Rfa2 C-terminus, LG linker; copies: 1;1;1; label: 5'-32P (EMSA); unlabeled (MST)"}}}
{"binder": "TTTTTTTTTTTTTTTTTTTTTTTTTTTTTTTTTTTTTTTTTTTTTTTTTT (ssDNA)", "note": "[dT(50)]", "values": [{"measurement": "binding result", "setting": "[1]", "value": "binds"}]}
{"binder": "TTTTTTTTTTTTTTT (ssDNA)", "note": "[dT(15)]", "values": [{"measurement": "binding result", "setting": "[2]", "value": "binds"}]}
{"binder": "TTTTTTTTTTTTTTTTTTTTTTTTTTTTTTTTTTTTTTTT (ssDNA)", "note": "[dT(40)]", "values": [{"measurement": "binding result", "setting": "[3]", "value": "binds"}]}
{"binder": "dT(54) (ssDNA) DNA: TTTTTTTTTTTTTTTTTTTTTTTTTTTTTTTTTTTTTTTTTTTTTTTTTTTTTT", "values": [{"measurement": "binding result", "setting": "[4]", "value": "binds"}]}
{"binder": "TTTTTTTTTTTTTTTTTTTT (ssDNA)", "note": "[dT(20)]", "values": [{"measurement": "binding result", "setting": "[5]", "value": "binds"}]}
{"binder": "dT(60) (ssDNA) DNA: TTTTTTTTTTTTTTTTTTTTTTTTTTTTTTTTTTTTTTTTTTTTTTTTTTTTTTTTTTTT", "values": [{"measurement": "binding result", "setting": "[6]", "value": "binds"}]}
{"binder": "TTTTTTTTTTTTTTTTTTTTTTTTTTTTTT (ssDNA)", "note": "[dT(30)]", "values": [{"measurement": "binding result", "setting": "[7]", "value": "binds"}, {"measurement": "binding result", "setting": "[8]", "value": "binds"}]}
